Values quoted from earlier work, collected in paper PMC2921030.

Target: 4E-BP1 peptide (Homo sapiens) (UniProt Q13541)
Sequence of UniProt Q13541 (Q13541 2-118): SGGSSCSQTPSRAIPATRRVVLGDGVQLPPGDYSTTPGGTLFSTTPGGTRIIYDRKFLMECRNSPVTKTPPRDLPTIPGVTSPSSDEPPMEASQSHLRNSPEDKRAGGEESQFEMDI

Kd: < 50 nM
Substance: eIF4E (from UniProt P06730)
